Assay results reported in US20200095590A1, “TRANSCRIPTION SYSTEM” (AUTOLUS LIMITED, priority 2016, published 2020).

Tests used:
T cells = assay: Phenotype assay: memory markers by flow cytometry on CAR-TF T cells after co-culture with CD19 positive SKOV3 target cells; format: cell-based; details: for proportion of naive and central memory cells (CM): co-expressed with anti-CD19 CAR (HD37), day 0 (post-transduction) and day 7 (6 days after 24 hour co-culture), CD4+ and CD8+ subpopulations; for CD62L expression / CD27 expression: co-expressed with CAR (HD37)
Source text: A bicistronic construct was expressed in BW5 T cells as a single transcript which self-cleaves at the 2A site to yield a chimeric antigen receptor (CAR); and a transcription factor (TF). Control constructs were also generated which lack the 2A site and the transcription factor (“CAR-only”) or lack the CAR and 2A site (“TF-only”).
The CAR was an anti-CD19 CAR comprising an endodomain derived from CD3 zeta and from the co-stimulatory receptor 41BB.
T cells expressing the various CAR-TF combinations, together with the relevant CAR-only and TF-only controls were co-cultured with CD19 positive SKOV3 target cells for 24 hours before recovering and culturing the T cells until day 7. The expression of the following memory markers was analysed by flow cytometry at day 0 of the co-culture and day 7, to see whether cells expressing factors that bias them towards central memory are more nave post-transduction and remain more nave upon stimulation with antigen-bearing target cells.
Memory Markers—CCR7, CD45RA, CD62L, CD27
The cells were gated on CAR-expression (via RQR8 transduction marker) and various T cell and T-cell subset markers (CD3 and CD8) depending on the sub-population of interest.

streptavidin = streptavidin (Streptomyces avidinii, UniProt P22629); details: biotin mimicking peptide binding streptavidin; read-out: affinity; cited from earlier work
streptavidin, sequence (P22629 25-183): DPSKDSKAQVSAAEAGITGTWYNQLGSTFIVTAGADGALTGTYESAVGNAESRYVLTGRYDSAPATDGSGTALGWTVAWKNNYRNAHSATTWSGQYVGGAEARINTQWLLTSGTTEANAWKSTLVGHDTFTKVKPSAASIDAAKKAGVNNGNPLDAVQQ

[1] = 6 days after a 24 hour co-culture with target cells, CD4+ and CD8+ T cells

| Molecule | proportion of naive and central memory cells (CM) (T cells) | Kd (streptavidin) | further results |
| --- | --- | --- | --- |
| BACH2 S520A: mutant Bach2 with S to A substitution at position 520 (SEQ ID No. 9), co-expressed with anti-CD19 CAR | increase in the proportion of nave and central memory cells (CM) |  |  |
| BACH2: Bach2 wild type transcription factor (SEQ ID No. 8), co-expressed with anti-CD19 CAR in T cells | increase in the proportion of nave and central memory cells (CM) |  |  |
| Runx3 and CBFbeta: transcription factors Runx3 (SEQ ID No. 13) and CBF beta (SEQ ID No. 22), co-expressed with anti-CD19 CAR in T cells |  |  | CD62L expression (T cells; after transduction (day 0) and 6 days after the 24 hour co-culture): upregulation of CD62L |
| biotin mimicking peptide CHPQGPPC (SEQ ID NO: 31) [ccstreptag] |  | 230 nM |  |
| biotin mimicking peptide DVEAWLDERVPLVET (SEQ ID NO: 26) (Biotin mimicking peptide, long nanotag) |  | 3.6 nM |  |
| biotin mimicking peptide DVEAWLGAR (SEQ ID NO: 27) (Biotin mimicking peptide, short nanotag) |  | 17 nM |  |
| biotin mimicking peptide WSHPQFEK (SEQ ID NO: 29) [streptagII] |  | 72000 nM |  |
| EOMES: Eomesodermin transcription factor (SEQ ID No. 11), co-expressed with anti-CD19 CAR in T cells (protein, UniProt O95936 1-686, looked up, co-expressed with anti-CD19 CAR) Eomesodermin homolog: MQLGEQLLVSSVNLPGAHFYPLESARGGSGGSAGHLPSAAPSPQKLDLDKASKKFSGSLSCEAVSGEPAAASAGAPAAMLSDTDAGDAFASAAAVAKPGPPDGRKGSPCGEEELPSAAAAAAAAAAAAAATARYSMDSLSSERYYLQSPGPQGSELAAPCSLFPYQAAAGAPHGPVYPAPNGARYPYGSMLPPGGFPAAVCPPGRAQFGPGAGAGSGAGGSSGGGGGPGTYQYSQGAPLYGPYPGAAAAGSCGGLGGLGVPGSGFRAHVYLCNRPLWLKFHRHQTEMIITKQGRRMFPFLSFNINGLNPTAHYNVFVEVVLADPNHWRFQGGKWVTCGKADNNMQGNKMYVHPESPNTGSHWMRQEISFGKLKLTNNKGANNNNTQMIVLQSLHKYQPRLHIVEVTEDGVEDLNEPSKTQTFTFSETQFIAVTAYQNTDITQLKIDHNPFAKGFRDNYDSSHQIVPGGRYGVQSFFPEPFVNTLPQARYYNGERTVPQTNGLLSPQQSEEVANPPQRWLVTPVQQPGTNKLDISSYESEYTSSTLLPYGIKSLPLQTSHALGYYPDPTFPAMAGWGGRGSYQRKMAAGLPWTSRTSPTVFSEDQLSKEKVKEEIGSSWIETPPSIKSLDSNDSGVYTSACKRRRLSPSNSSNENSPSIKCEDINAEEYSKDTSKGMGGYYAFYTTP |  |  | CD27 expression (T cells; [1]): significant upregulation of CD27; CD62L expression (T cells; [1]): do not show significant up-regulation of CD62L |
| FOXO1: Forkhead box protein O1 transcription factor (SEQ ID No. 12), co-expressed with anti-CD19 CAR in T cells (protein, listed as Homo sapiens) MAEAPQVVEIDPDFEPLPRPRSCTWPLPRPEFSQSNSATSSPAPSGSAAANPDAAAGLPSASAAAVSADFMSNLSLLEESEDFPQAPGSVAAAVAAAAAAAATGGLCGDFQGPEAGCLHPAPPQPPPPGPLSQHPPVPPAAAGPLAGQPRKSSSSRRNAWGNLSYADLITKAIESSAEKRLTLSQIYEWMVKSVPYFKDKGDSNSSAGWKNSIRHNLSLHSKFIRVQNEGTGKSSWWMLNPEGGKSGKSPRRRAASMDNNSKFAKSRSRAAKKKASLQSGQEGAGDSPGSQFSKWPASPGSHSNDDFDNWSTFRPRTSSNASTISGRLSPIMTEQDDLGEGDVHSMVYPPSAAKMASTLPSLSEISNPENMENLLDNLNLLSSPTSLTVSTQSSPGTMMQQTPCYSFAPPNTSLNSPSPNYQKYTYGQSSMSPLPQMPIQTLQDNKSSYGGMSQYNCAPGLLKELLTSDSPPHNDIMTPVDPGVAQPNSRVLGQNVMMGPNSVMSTYGSQASHNKMMNPSSHTHPGHAQQTSAVNGRPLPHTVSTMPHTSGMNRLTQVKTPVQVPLPHPMQMSALGGYSSVSSCNGYGRMGLLHQEKLPSDLDGMFIERLDCDMESIIRNDLMDGDTLDFNFDNVLPNQSFPHSVKTTTHSWVSG | greater proportion of nave and central memory cells (CM) |  | CD27 expression (T cells; [1]): upregulation of CD27, especially on CD8+ cells; CD62L expression (T cells; [1]): significant upregulation of CD62L |
